The target in data set [1] is T1, amyloid-beta (Abeta) (Amyloid Beta (1-40)) (Homo sapiens, UniProt P05067).
T1 construct: Amyloid Beta (1-40) from Biosource; purchased Biosource
Description: In vitro ligand binding (ELISA) to immobilized amyloid-beta. Particulars: ligand 5 micrograms per well; FIG. 7. The method, then: (§1) For example, the RAGE fusion protein may be used in a binding assay to identify potential RAGE ligands. In one example embodiment of such a binding assay, a known RAGE ligand may coated onto a solid substrate (e.g., Maxisorb plates) at a concentration of about 5 micrograms per well, where each well contains a total volume of about 100 microliters (μL). The plates may be incubated at 4° C. overnight to allow the ligand to absorb. Alternatively, shorter incubation periods at higher temperature (e.g., room temperature) may be used. […] The RAGE fusion protein bound to the immobilized ligand may be detected in a variety of ways. […] The bound complex may be detected by adding the alkaline phosphatase substrate, para-nitrophenylphosphate (PNPP), and measuring conversion of PNPP to para-nitrophenol (PNP) as an increase in absorbance at 405 nm. […] In the absence of ligand (i.e., coating with only BSA) there was no increase in absorbance. […] Binding was detected by the addition of an immunodetection complex containing a monoclonal mouse anti-human IgG1 diluted 1:11,000 to a final assay concentration (FAC) of 21 ng/100 μL, a biotinylated goat anti-mouse IgG diluted 1:500, to a FAC of […], and an avidin-linked alkaline phosphatase. […]

Data set [2] relates to recurrent diabetes in NOD/LtJ mice with syngeneic islet transplants. Description: Syngeneic islet transplantation in diabetic NOD mice. Format: in vivo, mouse. As to conditions: 300 ug LD + 100 ug qod ip. The source says:
Spontaneous autoimmune non-obese diabetic mice (NOD/LtJ) (12-25 weeks old) served as recipients for islet cells, while young pre-diabetic NOD/LtJ mice (6-7 weeks old) served as donors in syngeneic islet transplantation. Islets for transplantation were isolated as described above in Section A (Allogeneic Islet Transplantation).
Diabetic NOD/LtJ mice received islet grafts within 2 days of the diagnosis of diabetes. 500-600 freshly isolated islets (approximately 550 islet equivalents) from donor mice were picked up with an infusion set and transplanted into the subcapular space of the right kidney.
Test compounds were administered as soon as the islets were transplanted and continued for approximately 8 weeks.
Islet graft function was monitored by serial blood glucose measurements daily for the first 2 weeks after islet transplantation, followed by every other day thereafter. Reversal of diabetes was defined as blood glucose less than 200 mg/dl on two consecutive measurements. Percentage graft loss was determined when blood glucose exceeded 250 mg/dl on two consecutive measurements.

Another data set concerns the target T2, S100b (S100) (Homo sapiens, UniProt P04271).
T2 sequence (P04271 1-92): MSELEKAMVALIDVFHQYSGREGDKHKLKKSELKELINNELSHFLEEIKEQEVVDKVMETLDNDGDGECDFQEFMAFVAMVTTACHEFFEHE
The data set can be described thus: In vitro ligand binding (ELISA) to immobilized S100b. As to conditions: ligand 5 micrograms per well; FIG. 7. The method, then: as §1
In general terms: ELISA stands for enzyme-linked immunosorbent assay.

The target in a further data set is T3, amphoterin (Ampho) (Homo sapiens, UniProt P09429).
T3 sequence (P09429 1-215): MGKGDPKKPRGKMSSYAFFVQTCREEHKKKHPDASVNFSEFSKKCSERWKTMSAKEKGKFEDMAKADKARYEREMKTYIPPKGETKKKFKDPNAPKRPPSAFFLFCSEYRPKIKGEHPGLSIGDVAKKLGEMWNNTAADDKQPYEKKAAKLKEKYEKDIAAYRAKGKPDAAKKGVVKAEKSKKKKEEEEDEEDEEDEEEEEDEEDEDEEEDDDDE
The data set can be described thus: In vitro ligand binding (ELISA) to immobilized amphoterin. Particulars: ligand 5 micrograms per well; FIG. 7. Here is the method:
as §1

Data set [3] concerns transgenic mice expressing human Swedish mutant APP. The data set can be described thus: Mouse model of AD (APP transgenic mice): amyloid deposition and Morris water maze. It is filed as in vivo. As to conditions: treated for 3 months, vs vehicle and human IgG1. The method, then: Experiments were performed to evaluate whether TTP-4000 could affect amyloid formation and cognitive dysfunction in a mouse model of AD. The experiments utilized transgenic mice expressing the human Swedish mutant amyloid precursor protein (APP) under the control of the PDGF-B chain promoter. Over time, these mice generate high levels of the RAGE ligand, amyloid beta (Aβ).
The APP mice (male) used in this experiment were designed by microinjection of the human APP gene (with the Swedish and London mutations) into mouse eggs under the control of the platelet-derived growth factor B (PDGF-B) chain gene promoter. The mice were generated on a C57BL/6 background and were developed by Molecular Therapeutics Inc. Animals were fed ad libitum and maintained by brother sister mating. The mice generated from this construct develop amyloid deposits starting at 6 months of age. Animals were aged for 6 months and then maintained for 90 days and sacrificed for amyloid quantification.
APP transgenic mice were administered vehicle or TTP4000 every other day [qod (i.p.)] for 90 days starting at 6 months of age. At the end of the experiment, animals were sacrificed and examined for Aβ plaque burden in the brain (i.e., plaque number). A 6-month control APP group was used to determine the baseline of amyloid deposits. In addition, at the end of the study, the animals were subjected to behavioral (Morris water maze) analysis. The investigators were blinded to the study compounds. Samples were given to the mice at 0.25 ml/mouse/every other day.
For histological examination, the animals were anesthetized with an intraperitoneal injection (IP) of sodium pentobarbital (50 mg/kg). The animals were transcardially perfused with 4° C., phosphate-buffered saline (PBS) followed by 4% paraformaldehyde. The brains were removed and placed in 4% paraformaldehyde over night. The brains were processed to paraffin and embedded. Ten serial 30-μm thick sections through the brain were obtained. Sections were subjected to primary antibody overnight at 4° C. (Aβ peptide antibody) in order to detect the amyloid deposits in the brain of the transgenic animals (Guo et al., J. Neurosci., 22:5900-5909 (2002)). Sections were washed in Tris-buffered saline (TBS) and secondary antibody was added and incubated for 1 hour at room temperature. After washing, the sections were incubated as instructed in the Vector ABC Elite kit (Vector Laboratories) and stained with […] (DAB). The reactions were stopped in water and cover-slipped after treatment with xylene. The amyloid area in each section was determined with a computer-assisted image analysis system, consisting of a Power Macintosh computer equipped with a Quick Capture frame grabber card, Hitachi CCD camera mounted on an Olympus microscope and camera stand. NIH Image Analysis Software, v. 1.55 was used. The images were captured and the total area of amyloid was determined over the ten sections. A single operator blinded to treatment status performed all measurements. Summing the amyloid volumes of the sections and dividing by the total number of sections was done to calculate the amyloid volume.
For quantitative analysis, an enzyme-linked immunosorbent assay (ELISA) was used to measure the levels of human total Aβ, Aβtotal and Aβ1-42 in the brains of APP transgenic mice (Biosource International, Camarillo, Calif.). Aβtotal and Aβ1-42 were extracted from mouse brains by guanidine hydrochloride and quantified as described by the manufacturer. […]

Several values for one entry are separate records, joined by “and”; a condition that tells them apart may be missing. Equal values may be shown once.

The values that follow come from patent US20090004190A1, “Rage Fusion Proteins And Methods Of Use” (priority 2006, published 2009).

T1 sequence (P05067 672-711): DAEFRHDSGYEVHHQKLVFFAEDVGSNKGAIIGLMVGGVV

B1: TTP-3000: three domain RAGE fusion protein: human RAGE V domain and interdomain linker (to residue 136) fused to CH2 and CH3 domains of human IgG1 (protein)
chain: QNITARIGEPLVLKCKGAPKKPPQRLEWKLNTGRTEAWKVLSPQGGGPWDSVARVLPNGSLFLPAVGIQDEGIFRCQAMNRNGKETKSNYRVRVYQIPGKPEIVDSASELTAGPSVFLFPPKPKDTLMISRTPEVTCVVVDVSHEDPEVKFNWYVDGVEVHNAKTKPREEQYNSTYRVVSVLTVLHQDWLNGKEYKCKVSNKALPAPIEKTISKAKGQPREPQVYTLPPSRDELTKNQVSLTCLVKGFYPSDIAVEWESNGQPENNYKTTPPVLDSDGSFFLYSKLTVDKSRWQQGNVFSCSVMHEALHNHYTQKSLSLSPGK
In the case of B1, the “binding to immobilized amyloid-beta (absorbance at 405 nm)” value in data set [1] was “specifically interact”. Further, the “day of graft loss, Mean” value in data set [2] amounted to 38.43 days. For the same molecule, the “day of graft loss, each animal” value in data set [2] (blood glucose exceeded 250 mg/dl) was 46 days and 42 days and 41 days and 34 days and 32 days and 30 days and 44 days. For the same molecule, the “binding to immobilized S100b (absorbance at 405 nm)” value with S100b (S100) is recorded as “specifically interact”. Besides, in the data set with amphoterin (Ampho), the “binding to immobilized amphoterin (absorbance at 405 nm)” value is “specifically interact”.

B2: mouse sRAGE: mouse soluble RAGE used as comparator in the AD mouse model (protein, UniProt Q62151 23-340, looked up)
extracellular domain: GQNITARIGEPLVLSCKGAPKKPPQQLEWKLNTGRTEAWKVLSPQGGPWDSVARILPNGSLLLPATGIVDEGTFRCRATNRRGKEVKSNYRVRVYQIPGKPEIVDPASELTASVPNKVGTCVSEGSYPAGTLSWHLDGKLLIPDGKETLVKEETRRHPETGLFTLRSELTVIPTQGGTHPTFSCSFSLGLPRRRPLNTAPIQLRVREPGPPEGIQLLVEPEGGIVAPGGTVTLTCAISAQPPPQVHWIKDGAPLPLAPSPVLLLPEVGHEDEGTYSCVATHPSHGPQESPPVSIRVTETGDEGPAEGSVGESGLGTLA
modifications: extracellular domain
notes: mouse soluble RAGE used as comparator in the AD mouse model
For the molecule B2, the “Aβ plaques in the brain” value in data set [3] (FIG. 14A) was “fewer Aβ plaques”. In addition, in data set [3] (FIG. 14B), the “cognitive dysfunction (Morris water maze)” value is recorded as “less cognitive dysfunction”.
